Reference: patent publication US20250297232A1, “BACTERIAL MYELOPEROXIDASE-CATALASE AND APPLICATIONS THEREOF” (priority 2022, published 2025)

Key:
[1] = Pre-steady state: return of wt RbMPO to its native state, I^− range; type: biochemical; details: from pre-steady state return to native state with I^−, SCN^−, Br^−, Cl^−
Method: Kinetic parameters under pre-steady-state condition were performed with a Biologic SFM400 stopped-flow at 412 nm, 37° C. and with 50 mM sodium phosphate buffer at pH7.5. […] An exponential linear fit was applied to each kinetic using the following formula: […]
The return of the enzyme to its native state was studied by the impact of increasing concentrations of (pseudo)-halides substrates on compound I (FIG. 9B). […] It is the time difference (s) between the two characteristic steps that allowed the calculation of the values of the Vreturn(μM^−1.s^−1) values: […]

[2] = Stability of myeloperoxidase activity of wt RbMPO on storage in different buffers; type: physicochemical; details: stored in PBS buffer pH 6.6 at 37° C., up to 60 minutes
Method: The enzyme was concentrated at […] for the 4° C. storage condition and at 132.2 μM for the 37° C. storage condition. The MPO activity of the enzyme was assessed at different time points by a standard activity test.
The MPO activity of the enzyme was assessed at different time points by a standard activity test. To do so, the concentrated enzyme was diluted and contacted with H2O2, NaCl and APF.
The value obtained at TO is defined as 100% of the enzymatic (MPO) activity at the temperature tested and all the other activities are calculated from this TO timepoint.

[3] = Peroxidase activity with ABTS; type: biochemical; details: ABTS range; 0.5 nM wt RbMPO, 79 μM H2O2, pH5.5, 37° C.
Method: The plate reader was configured to run a 10 min kinetics at 430 nm with the following ABTS concentration range: 0, 0.1, 0.2, 0.5, 1, 2, 5, 10, 15, 20, 30 and 40 mM.

B1: wt RbMPO: novel bacterial heme peroxidase (myeloperoxidase-catalase) of about 78 KDa from Rhodopirellula baltica, SEQ ID NO: 1, produced recombinantly in E. coli (protein, listed as Rhodopirellula baltica)
chain: MLFWSKRTRKHPGRKRRRLRSEQLESRQLLAADFGGYRHNIYDAEDVNDDGRVSAIDALLVINAMTSETSRDENVFTDVNGDGRRSALDALRVINRIERGDVFPIDTSGDEDLNTLLPEMPSEVRSIDGSGNNPNDHLWGSVGQRLIRMAPAAYGDGISTLAGANRPSAREVSNVLSAMNTSQVLNDRGLSAFVYVWGQFIDHDLGLTESDEHGEAIDISVPEGDLWFDPMGSGEAVIPMTRTPIADGTGTSVGNPAQQFNQITAFIDGSMVYGSDAATAERLRTFAGGRLAISDNGLLPMDESGMVIAGDVRASENVGLTAIQTLFVREHNRLADEIFAADPEATDEEIYQRARLVVASLIQSITYNEFLPALLGQRAMDSYRGYDASVNPGIANEFSTAAFRLGHSTLRDEVGFMSNDGRESKDEMELKDAFFHASMLEETGIDSLLKFDASVQAQEIDLAVVDSLRNFLFGPPGAGGLDLVAMNIQRGRDHGLSDYNTTRQAYGLDRVETFDQITGDVELQQKLASLYGTVDNIDLWVGLMAEDHQHDASVGELTGLIIADQFQRTRDGDRFFYKNVLTDSEVESIERSTLADLIERNTSVDGLQENVFFMQVELRGRVILASSIPPNTMPSEVREEEIRGVSGMAIELIDASGKLVDSTVSDQHGNYRFRALSETGDYQVRLSESGEAMDVLVAHGAERIRGLDFIVLA
substrate specificity [1]: I^−>SCN^−>Br^− Cl^− | fall of myeloperoxidase activity [2]: 50% | k2 [3]: 10620 M⁻¹ s⁻¹
